The values that follow come from publication PMC8584998, “Arabidopsis FHY3 and FAR1 Function in Age Gating of Leaf Senescence”.

The data set addresses T1, MBP-EIN3N (UniProt O24606 141-352).
T1 sequence: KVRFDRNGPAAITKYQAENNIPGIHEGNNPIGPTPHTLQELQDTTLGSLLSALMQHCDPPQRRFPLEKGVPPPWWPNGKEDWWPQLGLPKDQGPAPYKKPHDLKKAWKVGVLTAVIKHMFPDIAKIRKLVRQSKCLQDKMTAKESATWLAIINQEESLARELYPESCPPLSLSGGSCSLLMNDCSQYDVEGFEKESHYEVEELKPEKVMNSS
The data set is described as follows: EMSA; LightShift Chemiluminescent EMSA kit (Pierce), 10 min at room temperature, 6% native polyacrylamide gel; buffer, salt and pH not stated. As to conditions: protein: recombinant; tags: MBP; chain copies: 2; label: biotin; blunt.

B1: ORE1 EBS (dsDNA)
DNA 1: ATACTTTACAAGGTTCATGCATGCATAC
DNA 2: GTATGCATGCATGAACCTTGTAAAGTAT
As for B1, the binding result is on record as “binds”.
